Test results taken from paper PMC4505066 (2015).
Several values for one entry are separate records, joined by “and”; a condition that tells them apart may be missing. Equal values may be shown once. Read-outs that look alike come from different tables or passages of the source. No end group written: not given here.

B1: HDAC4 catalytic domain, wild type (domain or fragment)
chain: TKPRFTTGLVYDTLMLKHQCTCGSSSSHPEHAGRIQSIWSRLQETGLRGKCECIRGRKATLEELQTVHSEAHTLLYGTNPLNRQKLDSKKLLGSLASVFVRLPCGGVGVDSDTIWNEVHSAGAARLAVGCVVELVFKVATGELKNGFAVVRPPGHHAEESTPMGFCYFNSVAVAAKLLQQRLSVSKILIVDWDVHHGNGTQQAFYSDPSVLYMSLHRYDDGNFFPGSGAPDEVGTGPGVGFNVNMAFTGGLDPPMGDAEYLAAFRTVVMPIASEFAPDVVLVSSGFDAVEGHPTPLGGYNLSARCFGYLTKQLMGLAGGRIVLALEGGHDLTAICDASEACVSALLGNELDPLPEKVLQQRPNANAVRSMEKVMEIHSKYWRCLQRTTSTAGRSLIEAQTCENEEAETVT

What was measured:
[1] = biological target: T1, GSI motif peptide with a mutation to Gln-5 of the motif (UniProt Q9Y618, BODIPY-TMR coupled to the N-terminal cysteine); assay: FP; Q5A peptide
[2] = biological target: T1, GSI motif peptide with a mutation to …; assay: FP; Q5E peptide
[3] = biological target: GSI motif peptide with a mutation to Pro-8 of the motif (UniProt Q9Y618, BODIPY-TMR coupled to the N-terminal cysteine); assay: FP; P8A peptide
[4] = biological target: T2, GSI motif peptide with a mutation to Thr-4 of the motif (UniProt Q9Y618, BODIPY-TMR coupled to the N-terminal cysteine); assay: FP; T4A peptide
[5] = biological target: T2, GSI motif peptide with a mutation to …; assay: FP; T4V peptide
[6] = biological target: HDAC4 catalytic domain L728A (UniProt P56524 648-1033, L728A); assay: FP
Sequence of HDAC4 catalytic domain L728A (P56524 648-1033 L728A): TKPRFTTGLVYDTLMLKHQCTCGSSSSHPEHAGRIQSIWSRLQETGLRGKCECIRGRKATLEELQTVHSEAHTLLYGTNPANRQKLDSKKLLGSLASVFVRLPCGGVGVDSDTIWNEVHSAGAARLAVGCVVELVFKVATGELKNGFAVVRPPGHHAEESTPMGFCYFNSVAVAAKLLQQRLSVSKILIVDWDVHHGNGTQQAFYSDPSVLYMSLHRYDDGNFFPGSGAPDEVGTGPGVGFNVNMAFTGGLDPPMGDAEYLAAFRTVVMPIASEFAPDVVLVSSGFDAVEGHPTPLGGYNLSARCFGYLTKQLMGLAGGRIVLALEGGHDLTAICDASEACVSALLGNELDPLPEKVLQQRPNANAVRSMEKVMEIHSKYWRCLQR

[7] = biological target: T3, HDAC4 catalytic domain C751A; assay: FP
T3 chain: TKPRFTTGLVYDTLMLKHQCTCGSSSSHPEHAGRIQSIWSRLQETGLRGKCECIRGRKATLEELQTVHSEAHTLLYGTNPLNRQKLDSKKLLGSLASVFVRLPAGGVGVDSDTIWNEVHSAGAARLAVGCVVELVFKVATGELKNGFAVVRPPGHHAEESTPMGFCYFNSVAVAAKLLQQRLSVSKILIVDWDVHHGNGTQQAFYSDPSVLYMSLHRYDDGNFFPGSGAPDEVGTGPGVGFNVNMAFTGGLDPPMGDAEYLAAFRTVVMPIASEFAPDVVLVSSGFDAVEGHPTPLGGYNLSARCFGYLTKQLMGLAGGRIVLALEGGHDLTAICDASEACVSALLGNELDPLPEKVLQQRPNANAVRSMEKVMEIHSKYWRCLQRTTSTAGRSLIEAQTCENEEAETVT

[8] = biological target: T4, HDAC4 catalytic domain H675A; assay: FP
T4 chain: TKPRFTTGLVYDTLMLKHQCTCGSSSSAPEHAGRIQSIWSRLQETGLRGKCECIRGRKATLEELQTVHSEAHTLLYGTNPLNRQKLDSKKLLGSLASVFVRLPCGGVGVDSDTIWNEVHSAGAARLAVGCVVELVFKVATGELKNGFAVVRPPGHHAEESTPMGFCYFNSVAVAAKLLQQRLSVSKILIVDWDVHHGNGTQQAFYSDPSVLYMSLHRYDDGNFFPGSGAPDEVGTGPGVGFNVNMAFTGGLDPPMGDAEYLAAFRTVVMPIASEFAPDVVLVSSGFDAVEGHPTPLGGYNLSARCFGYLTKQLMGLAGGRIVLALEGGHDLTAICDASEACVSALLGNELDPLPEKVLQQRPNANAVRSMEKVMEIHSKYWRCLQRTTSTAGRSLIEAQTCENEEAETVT

[9] = biological target: T5, HDAC4 catalytic domain C667A; assay: FP
T5 chain: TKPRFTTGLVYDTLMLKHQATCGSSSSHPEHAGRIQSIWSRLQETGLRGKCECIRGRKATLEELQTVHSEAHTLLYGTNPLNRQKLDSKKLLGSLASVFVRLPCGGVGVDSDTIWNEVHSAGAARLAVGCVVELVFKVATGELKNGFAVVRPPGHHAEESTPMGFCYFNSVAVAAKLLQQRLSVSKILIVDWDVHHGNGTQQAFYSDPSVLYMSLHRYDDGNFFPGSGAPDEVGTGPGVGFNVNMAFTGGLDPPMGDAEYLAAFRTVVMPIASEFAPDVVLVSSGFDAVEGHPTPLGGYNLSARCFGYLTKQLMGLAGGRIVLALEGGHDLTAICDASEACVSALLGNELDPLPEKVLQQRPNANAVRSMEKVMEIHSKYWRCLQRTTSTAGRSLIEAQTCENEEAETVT

[10] = biological target: B1; assay: FP
[11] = biological target: T6, HDAC9 catalytic domain; assay: FP
T6 chain: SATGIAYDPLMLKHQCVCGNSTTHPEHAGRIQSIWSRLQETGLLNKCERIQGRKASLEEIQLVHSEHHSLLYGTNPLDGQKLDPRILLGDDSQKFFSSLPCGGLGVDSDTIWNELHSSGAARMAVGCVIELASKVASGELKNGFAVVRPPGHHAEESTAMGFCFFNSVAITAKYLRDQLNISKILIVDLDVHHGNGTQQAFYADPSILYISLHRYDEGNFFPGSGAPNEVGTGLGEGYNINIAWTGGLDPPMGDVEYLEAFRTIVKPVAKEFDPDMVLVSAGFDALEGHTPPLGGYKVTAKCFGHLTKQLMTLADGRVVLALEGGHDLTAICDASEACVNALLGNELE

[12] = biological target: T7, HDAC7 catalytic domain; assay: FP
T7 chain: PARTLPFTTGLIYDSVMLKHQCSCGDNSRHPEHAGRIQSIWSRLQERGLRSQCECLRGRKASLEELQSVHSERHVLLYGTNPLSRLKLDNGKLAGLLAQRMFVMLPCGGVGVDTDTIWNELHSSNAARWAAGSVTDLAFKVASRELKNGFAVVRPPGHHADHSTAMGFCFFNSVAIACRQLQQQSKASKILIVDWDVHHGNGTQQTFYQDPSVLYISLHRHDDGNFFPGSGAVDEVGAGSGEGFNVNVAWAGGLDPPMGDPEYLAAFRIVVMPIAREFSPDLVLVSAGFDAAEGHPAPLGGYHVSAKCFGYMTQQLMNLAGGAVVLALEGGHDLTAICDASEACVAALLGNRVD

[13] = biological target: T8, HDAC5 catalytic domain; assay: FP
T8 chain: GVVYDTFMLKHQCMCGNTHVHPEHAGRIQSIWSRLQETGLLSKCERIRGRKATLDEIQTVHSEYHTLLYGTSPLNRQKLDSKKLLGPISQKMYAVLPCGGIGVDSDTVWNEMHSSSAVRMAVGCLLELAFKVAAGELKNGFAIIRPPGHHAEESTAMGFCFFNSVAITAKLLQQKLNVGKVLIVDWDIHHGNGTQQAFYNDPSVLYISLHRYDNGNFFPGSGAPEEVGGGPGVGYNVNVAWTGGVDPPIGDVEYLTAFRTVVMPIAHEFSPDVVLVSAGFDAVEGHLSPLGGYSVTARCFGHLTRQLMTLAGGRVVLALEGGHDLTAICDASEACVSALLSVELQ

[14] = biological target: B1; assay: FP
[15] = biological target: T9, full-length HDAC8 (UniProt Q9BY41 1-377); assay: FP
T9 chain: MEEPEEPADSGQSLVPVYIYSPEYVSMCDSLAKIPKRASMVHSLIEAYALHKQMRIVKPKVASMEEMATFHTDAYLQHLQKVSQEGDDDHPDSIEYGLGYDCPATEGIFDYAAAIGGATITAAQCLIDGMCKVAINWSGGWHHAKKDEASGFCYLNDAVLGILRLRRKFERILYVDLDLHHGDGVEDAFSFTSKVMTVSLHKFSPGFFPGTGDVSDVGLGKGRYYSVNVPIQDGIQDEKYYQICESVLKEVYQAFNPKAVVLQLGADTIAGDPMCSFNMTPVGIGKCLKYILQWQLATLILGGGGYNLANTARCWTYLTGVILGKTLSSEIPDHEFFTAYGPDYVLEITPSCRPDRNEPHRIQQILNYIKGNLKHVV

| Binder | Kd [1] [µM] | Kd [2] [µM] | Kd [3] [µM] | Kd [4] [µM] | Kd [5] [µM] | Kd [6] [µM] | Kd [7] [µM] | Kd [8] [µM] | Kd [9] [µM] | Kd [10] [µM] | Kd [11] [µM] | Kd [12] [µM] | Kd [13] [µM] | Kd [14] | Kd [15] [µM] |
| --- | --- | --- | --- | --- | --- | --- | --- | --- | --- | --- | --- | --- | --- | --- | --- |
| B1 | 5.47 | 17.7 | 47 | 14.4 | 16.9 | – | – | – | – | – | – | – | – | – | – |
| C(BODIPY‑TMR)PRPLKEGSITQGTPLKYDTG | – | – | – | – | – | 4.59 | > 1000 | > 1000 | > 1000 | 5.6 | 8.34 | 4.44 | 4.24 | 5.74 µM and 6.5 µM | > 1000 |
